Laboratory results published in patent US20140020131.

Columns and labels:
[1] = target: T1, engineered MS26+ endonuclease, intron-containing gene (ST-LS1 intron) (synthetic construct (Chlamydomonas reinhardtii I-CreI derived)?) (UniProt P05725); test: cell_activity; settings: 3 of 257 T0 maize plants
T1 sequence: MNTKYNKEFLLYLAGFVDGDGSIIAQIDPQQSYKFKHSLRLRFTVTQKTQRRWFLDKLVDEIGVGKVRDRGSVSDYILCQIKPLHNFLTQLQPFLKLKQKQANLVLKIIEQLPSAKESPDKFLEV

[2] = system: engineered MS26++ endonuclease (I-CreI-based) (synthetic construct (Chlamydomonas reinhardtii I-CreI derived)?); test: cell_activity; settings: 15 mutations among 344 T0 maize plants as printed; Agrobacterium

GATGGTGACGTACGTGCCCTAC (double strand) [TS-MS26 target site (maize MS26 exon 5)]
activity (% T0 plants mutated) [1]: 1.2 | activity (% T0 plants mutated) [2]: 5.8
